The chains are these.
T1: biotinylated huIL-23R-IgG (human, UniProt Q5VWK5 24-353, biotinylated)
T1 construct: not shown: human IgG1 Fc
T1 sequence: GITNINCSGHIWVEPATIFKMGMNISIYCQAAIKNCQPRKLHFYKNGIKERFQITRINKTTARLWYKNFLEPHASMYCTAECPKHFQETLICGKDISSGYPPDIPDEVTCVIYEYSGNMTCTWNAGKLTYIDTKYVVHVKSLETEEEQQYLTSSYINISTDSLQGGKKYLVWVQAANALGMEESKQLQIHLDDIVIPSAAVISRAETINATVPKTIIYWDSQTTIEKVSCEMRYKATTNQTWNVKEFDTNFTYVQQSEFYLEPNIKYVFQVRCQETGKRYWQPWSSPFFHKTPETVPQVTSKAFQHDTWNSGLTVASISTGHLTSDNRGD

B1: chimeric 8B10 Fab, VH H102A (Fab, V domains shown)
VH: EVKLVESGGGLEQPKGSLKLSCTVSGFDFNSYGMSWVRQAPGKGLDLVADINSKSYNYATYYADSVKDRFTISRDDSQSMVYLEMDNLKTEDTALYYCTVHASDYFEYWGQGVMVTVSS
VL: DIQMTQSPASLSASLGETVSIECLASEDIYNNLAWYQQKPGKSPQLLIYHASSLQDGVPSRFSGSGSGTQYSLKINSLESEDAATYFCLQDSEYPPTFGGGTKLELKR
notes: Rat V domains with human CH1 and CL; E. coli periplasmic extract
B2: chimeric 8B10 Fab, VH D50A (Fab, V domains shown)
VH: B1 VH with D50A, A102H
VL: B1 VL
notes: as for B1
B3: chimeric 8B10 Fab, VH G33A (Fab, V domains shown)
VH: B1 VH with G33A, A102H
VL: B1 VL
notes: as for B1
B4: chimeric 8B10 Fab, VH A49G (Fab, V domains shown)
VH: B1 VH with A49G, A102H
VL: B1 VL
notes: as for B1
B5: chimeric 8B10 Fab, VH E107A (Fab, V domains shown)
VH: B1 VH with A102H, E107A
VL: B1 VL
notes: as for B1
B6: chimeric 8B10 Fab, VH K54A (Fab, V domains shown)
VH: B1 VH with K54A, A102H
VL: B1 VL
notes: as for B1
B7: chimeric 8B10 Fab, VH R74A (Fab, V domains shown)
VH: B1 VH with R74A, A102H
VL: B1 VL
notes: as for B1
B8: chimeric 8B10 Fab, VH D104A (Fab, V domains shown)
VH: B1 VH with A102H, D104A
VL: B1 VL
notes: as for B1
B9: chimeric 8B10 Fab, VH I51A (Fab, V domains shown)
VH: B1 VH with I51A, A102H
VL: B1 VL
notes: as for B1
B10: chimeric 8B10 Fab, VH S55A (Fab, V domains shown)
VH: B1 VH with S55A, A102H
VL: B1 VL
notes: as for B1
B11: chimeric 8B10 Fab, VH N52A (Fab, V domains shown)
VH: B1 VH with N52A, A102H
VL: B1 VL
notes: as for B1
B12: chimeric 8B10 Fab, VH S53A (Fab, V domains shown)
VH: B1 VH with S53A, A102H
VL: B1 VL
notes: Rat V domains with human CH1 and CL; E. coli periplasmic extract; also called S53A (heavy chain variable domain)
B13: chimeric 8B10 Fab, VH Y32A (Fab, V domains shown)
VH: B1 VH with Y32A, A102H
VL: B1 VL
notes: as for B1
B14: chimeric 8B10 Fab, VH S103A (Fab, V domains shown)
VH: B1 VH with A102H, S103A
VL: B1 VL
notes: as for B1
B15: chimeric 8B10 Fab, VH H101A (Fab, V domains shown)
VH: B1 VH with H101A, A102H
VL: B1 VL
notes: as for B1
B16: chimeric 8B10 Fab, VH S31A (Fab, V domains shown)
VH: B1 VH with S31A, A102H
VL: B1 VL
notes: as for B1
B17: chimeric 8B10 Fab, VH F106A (Fab, V domains shown)
VH: B1 VH with A102H, F106A
VL: B1 VL
notes: as for B1

Substitutions are numbered along the chain they refer to. In names and notes the source's numbering stands.

In the test the target is T1, biotinylated huIL-23R-IgG. As to the kind of experiment: ECL binding assay, periplasmic Fab extracts, biotinylated huIL-23R-IgG; AUC vs parental 8B10 Fab. From the text:
The N31T change was introduced as a result of affinity maturation experiments, as follows. An E. coli expression vector for expression into the periplasmic space was constructed encoding a chimeric Fab fragment of rat antibody 8B10 comprising rat variable domains, a human constant light chain domain (CL) and a human constant heavy chain domain CH1. Mutations were introduced using a QuikChange® site directed mutagenesis kit (Stratagene Inc., LaJolla, Calif., USA). Primers were designed to replace selected positions with either alanine, or by all 20 amino acids, using the NNK codon approach (N includes an equimolar mix of A/G/C/T and K includes only G/T). To reduce background, alanine mutants at each position were used as the template for the randomization step. Unpurified periplasmic extracts were then tested for human IL-23R binding activity using an electrochemiluminescence assay with biotinylated huIL-23R-IgG and goat anti-huFab-Ori-Tag for detection. The area under the curve was used to compare the binding activity of sequence variants to the original parental 8B10 Fab. Data were fitted using GraphPad Prism® 3.0 software (Graphpad Software inc., San Diego, Calif. USA).
Consider B1, for which the “Binding (% of w.t.)” value is 84.2 % of w.t.

On to B2, for which the “Binding (% of w.t.)” value is 67.3 % of w.t.

For B3, the “Binding (% of w.t.)” value is 27.4 % of w.t.

On to B4, for which the “Binding (% of w.t.)” value is 79 % of w.t.

As to B5, the “Binding (% of w.t.)” value was 61 % of w.t.

As for B6, the “Binding (% of w.t.)” value was 71.1 % of w.t.

Consider B7, for which the “Binding (% of w.t.)” value is 52.6 % of w.t.

As to B8, the “Binding (% of w.t.)” value is 1.5 % of w.t.

Take B9: the “Binding (% of w.t.)” value is 123 % of w.t.

As to B10, the “Binding (% of w.t.)” value is 105 % of w.t.

As to B11, the “Binding (% of w.t.)” value was 38.7 % of w.t.

As for B12, the “Binding (% of w.t.)” value is 88.7 % of w.t.

As for B13, the “Binding (% of w.t.)” value is 76.3 % of w.t.

On to B14, for which the “Binding (% of w.t.)” value was 65.7 % of w.t.

For the molecule B15, the “Binding (% of w.t.)” value was 29.1 % of w.t.

For B16, the “Binding (% of w.t.)” value was 100 % of w.t.

B17: the “Binding (% of w.t.)” value was 71.1 % of w.t.

(Values after patent US20110158992A1 (SCHERING, published 2011).)
